Reference: patent US20240209092A1 (ADAGENE, published 2024)

Key:
[1] = target: T1, recombinant rat CTLA4 protein (extracellular domain) (rat, UniProt Q62859 36-161); assay: ELISA, recombinant rat CTLA4 extracellular domain coated on the plate, captured antibody detected with HRP-labeled anti-human IgG (Fab specific), absorbance at 450 nm
T1 sequence: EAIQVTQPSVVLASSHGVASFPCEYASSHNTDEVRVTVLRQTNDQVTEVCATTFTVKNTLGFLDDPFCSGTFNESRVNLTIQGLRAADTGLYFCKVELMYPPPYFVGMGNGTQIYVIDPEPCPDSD

[2] = target: T2, recombinant mouse CTLA4 protein (extracellular domain) (mouse, UniProt P09793 36-161); assay: ELISA, CTLA4 extracellular domain coated; reference masked TY22404
T2 construct: extracellular domain

[3] = target: T1, recombinant rat CTLA4 protein …; assay: as above
[4] = target: T3, recombinant human CTLA4 protein (extracellular domain) (human, UniProt P16410 36-161); assay: as above
T3 construct: extracellular domain
T3 sequence (looked up): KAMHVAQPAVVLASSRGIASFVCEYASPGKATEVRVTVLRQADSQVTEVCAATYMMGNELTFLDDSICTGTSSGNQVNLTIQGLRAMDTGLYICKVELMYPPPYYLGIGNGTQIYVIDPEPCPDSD

[5] = target: T4, recombinant cynomolgus monkey CTLA4 protein (extracellular domain) (cynomolgus monkey, UniProt G7PL88 36-161); assay: as above
T4 sequence: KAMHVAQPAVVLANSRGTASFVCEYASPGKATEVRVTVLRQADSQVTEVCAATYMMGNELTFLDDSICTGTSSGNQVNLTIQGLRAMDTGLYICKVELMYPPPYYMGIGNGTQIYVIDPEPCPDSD

[6] = target: T3, recombinant human CTLA4 protein …; assay: ELISA, recombinant human CTLA4 extracellular domain coated on the plate, captured antibody detected with HRP-labeled anti-human IgG (Fab specific), absorbance at 450 nm
[7] = target: T4, recombinant cynomolgus monkey CTLA4 …; assay: ELISA, recombinant cynomolgus monkey CTLA4 extracellular domain coated on the plate, captured antibody detected with HRP-labeled anti-human IgG (Fab specific), absorbance at 450 nm
[8] = target: T2, recombinant mouse CTLA4 protein …; assay: ELISA, CTLA4 extracellular domain coated, HRP anti-human IgG (Fab specific) detection
[9] = target: T1, recombinant rat CTLA4 protein …; assay: as above
[10] = target: T3, recombinant human CTLA4 protein …; assay: as above
[11] = target: T4, recombinant cynomolgus monkey CTLA4 …; assay: as above
[12] = target: T5, human CTLA4 expressed on cells (human, UniProt P16410 36-223); assay: cell-based or functional assay
T5 sequence (looked up): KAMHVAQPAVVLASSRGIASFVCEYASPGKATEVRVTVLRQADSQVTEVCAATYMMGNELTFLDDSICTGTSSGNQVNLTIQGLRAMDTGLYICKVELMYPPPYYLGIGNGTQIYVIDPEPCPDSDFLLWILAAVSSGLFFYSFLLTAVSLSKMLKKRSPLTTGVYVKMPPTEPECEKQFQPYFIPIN

[13] = target: T2, recombinant mouse CTLA4 protein …; assay: ELISA, recombinant mouse CTLA4 extracellular domain coated on the plate, captured antibody detected with HRP-labeled anti-human IgG (Fab specific), absorbance at 450 nm

B1: activated TY22404 by condition 2 (antibody)
heavy: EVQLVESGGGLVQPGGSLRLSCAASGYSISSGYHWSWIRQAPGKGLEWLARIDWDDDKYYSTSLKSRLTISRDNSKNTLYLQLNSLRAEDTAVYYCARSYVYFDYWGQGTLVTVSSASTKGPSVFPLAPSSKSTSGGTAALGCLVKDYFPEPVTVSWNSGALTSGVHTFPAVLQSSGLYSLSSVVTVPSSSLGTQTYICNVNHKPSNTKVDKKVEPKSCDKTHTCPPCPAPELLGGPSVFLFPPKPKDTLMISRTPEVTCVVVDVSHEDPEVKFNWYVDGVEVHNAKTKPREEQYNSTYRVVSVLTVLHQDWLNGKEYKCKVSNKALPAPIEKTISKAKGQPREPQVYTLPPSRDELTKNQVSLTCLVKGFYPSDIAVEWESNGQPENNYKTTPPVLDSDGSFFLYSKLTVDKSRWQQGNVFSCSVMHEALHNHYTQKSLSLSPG
light: DIQLTQSPSSLSASVGDRVTITCRASQSVRGRFLAWYQQKPGKAPKLLIYDASNRATGIPSRFSGSGSGTDFTLTISSLQPEDFATYYCQQSSSWPPTFGQGTKVEIKRTVAAPSVFIFPPSDEQLKSGTASVVCLLNNFYPREAKVQWKVDNALQSGNSQESVTEQDSKDSTYSLSSTLTLSKADYEKHKVYACEVTHQGLSSPVTKSFNRGEC
notes: IgG1; also called cleaved TY22404; not shown: remnant of the cleavable linker left after cleavage
B1 was tested, and the “EC50 (read off the curve)” value [1] was ~300 pM, the “fold increased affinity compared to masked TY22404” value (“fold increased affinity” for short) [2] was > 300 fold and the “fold increased affinity” value [3] was > 100 fold. The “fold increased affinity” value [4] was > 250 fold, the “fold increased affinity” value [5] was ~40 fold and the “EC50 (read off the curve)” value [6] was ~300 pM. The “EC50 (read off the curve)” value [7] was ~300 pM, the EC50 [8] was ~300 pM and the EC50 [9] was ~300 pM. The EC50 [10] was ~300 pM, the EC50 [11] was ~300 pM and the “EC50 (read off the curve)” value [12] was ~700 pM. For the same binder, the “EC50 (read off the curve)” value [13] was ~300 pM.

B2: activated TY22404 by condition 1 (antibody)
heavy: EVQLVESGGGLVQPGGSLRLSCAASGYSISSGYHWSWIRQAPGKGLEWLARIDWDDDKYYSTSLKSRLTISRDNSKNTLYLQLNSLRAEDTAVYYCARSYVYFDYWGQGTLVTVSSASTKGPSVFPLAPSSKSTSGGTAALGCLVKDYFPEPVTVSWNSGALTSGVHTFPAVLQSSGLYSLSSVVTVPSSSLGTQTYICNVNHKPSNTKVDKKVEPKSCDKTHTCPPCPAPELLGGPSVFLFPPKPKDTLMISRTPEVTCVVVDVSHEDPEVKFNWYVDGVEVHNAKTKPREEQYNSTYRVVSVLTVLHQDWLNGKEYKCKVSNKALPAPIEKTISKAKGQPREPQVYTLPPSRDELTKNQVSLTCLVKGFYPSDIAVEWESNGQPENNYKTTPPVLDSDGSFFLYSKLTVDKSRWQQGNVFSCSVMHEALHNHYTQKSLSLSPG
light: DIQLTQSPSSLSASVGDRVTITCRASQSVRGRFLAWYQQKPGKAPKLLIYDASNRATGIPSRFSGSGSGTDFTLTISSLQPEDFATYYCQQSSSWPPTFGQGTKVEIKRTVAAPSVFIFPPSDEQLKSGTASVVCLLNNFYPREAKVQWKVDNALQSGNSQESVTEQDSKDSTYSLSSTLTLSKADYEKHKVYACEVTHQGLSSPVTKSFNRGEC
notes: as for B1
For B2, the “EC50 (read off the curve)” value [1] was ~300 pM, the “fold increased affinity” value [2] was > 300 fold and the “fold increased affinity” value [3] was > 100 fold. For the same binder, the “fold increased affinity” value [4] was > 250 fold, the “fold increased affinity” value [5] was ~40 fold and the “EC50 (read off the curve)” value [6] was ~300 pM. The “EC50 (read off the curve)” value [7] was ~300 pM, the EC50 [8] was ~300 pM and the EC50 [9] was ~300 pM. The EC50 [10] was ~300 pM, the EC50 [11] was ~300 pM and the “EC50 (read off the curve)” value [13] was ~300 pM.

B3: TY22404 (masked, masking peptide intact) (antibody)
heavy: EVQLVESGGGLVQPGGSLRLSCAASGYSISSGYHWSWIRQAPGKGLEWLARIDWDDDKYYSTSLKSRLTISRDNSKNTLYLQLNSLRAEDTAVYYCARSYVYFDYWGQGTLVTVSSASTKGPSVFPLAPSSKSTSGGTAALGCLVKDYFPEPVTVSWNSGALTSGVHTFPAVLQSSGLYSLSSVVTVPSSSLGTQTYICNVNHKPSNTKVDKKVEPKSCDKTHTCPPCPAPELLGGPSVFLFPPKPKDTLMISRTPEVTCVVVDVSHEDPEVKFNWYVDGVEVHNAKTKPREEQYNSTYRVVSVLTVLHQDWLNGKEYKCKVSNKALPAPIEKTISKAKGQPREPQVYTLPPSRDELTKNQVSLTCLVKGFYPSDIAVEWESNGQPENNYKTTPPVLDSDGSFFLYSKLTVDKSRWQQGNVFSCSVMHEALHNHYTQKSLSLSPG
light: EVGSYPNPSSDCVPYYYACAYSGRSAGGGGTPLGLAGSGGSDIQLTQSPSSLSASVGDRVTITCRASQSVRGRFLAWYQQKPGKAPKLLIYDASNRATGIPSRFSGSGSGTDFTLTISSLQPEDFATYYCQQSSSWPPTFGQGTKVEIKRTVAAPSVFIFPPSDEQLKSGTASVVCLLNNFYPREAKVQWKVDNALQSGNSQESVTEQDSKDSTYSLSSTLTLSKADYEKHKVYACEVTHQGLSSPVTKSFNRGEC
notes: It has the VH and VL of TY21580, with the mask/linker at the N-terminus of the light chain; also called masked TY22404; masking peptide-intact TY22404
For B3, the “EC50 (read off the curve)” value [1] was ~30000 pM, the “EC50 (read off the curve)” value [6] was ~70000 pM and the “EC50 (read off the curve)” value [7] was ~10000 pM. The “EC50 (read off the curve)” value [13] was ~100000 pM.
